Measured values as given in patent CN117603358A.

Target: S蛋白, SARS-CoV-2原型毒株 (SARS-CoV-2 (prototype)) (UniProt P0DTC2)
Test: cell-based or functional assay

LY-CoV1404 (antibody)
假病毒中和活性 IC50: 1.19 ng/mL
